According to patent US20230242651A1 (published 2023):
Numbering of substitutions follows the chain as printed.

T1: human interleukin-23 receptor (IL23R) (human, UniProt Q5VWK5 24-355, limits assumed)
T1 construct: also called human IL23R
T1 sequence (looked up): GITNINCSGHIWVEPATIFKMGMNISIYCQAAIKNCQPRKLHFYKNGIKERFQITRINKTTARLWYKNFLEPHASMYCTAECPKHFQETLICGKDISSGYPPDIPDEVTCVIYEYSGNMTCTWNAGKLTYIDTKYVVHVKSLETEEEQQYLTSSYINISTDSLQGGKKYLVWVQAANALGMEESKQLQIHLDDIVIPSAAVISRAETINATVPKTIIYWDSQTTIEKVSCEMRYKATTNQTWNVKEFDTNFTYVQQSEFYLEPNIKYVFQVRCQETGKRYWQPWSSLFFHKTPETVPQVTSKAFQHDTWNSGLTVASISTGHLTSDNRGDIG

B1: Vκ1/VH1A consensus λ-capped, human IL23R specific scFv (scFv)
scFv: DIQMTQSPSSLSASVGDRVTITCQASENIYSFLAWYQQKPGKAPKLLIYSASKLAAGVPSRFSGSGSGTDFTLTISSLQPEDFATYYCQQTNRYSNPDIYNVFGGGTKLTVLGGGGGSGGGGSGGGGSGGGGSQVQLVQSGAEVKKPGSSVKVSCKASGIDFNSNYYMCWVRQAPGQGLEWMGCIYVGSHVNTYYANWAKGRVTITADESTSTAYMELSSLRSEDTAVYYCATSGSSVLYFKFWGQGTLVTVSS
notes: scFv VL-linker-VH, made in E. coli; also called Vκ1VH1A capped
B2: Vκ1/VH1B consensus λ-capped, human IL23R specific scFv (scFv)
scFv: B1 scFv with S149A, I205M, A207R, E209T, T211I
notes: scFv VL-linker-VH, made in E. coli; also called Vκ1VH1B capped
B3: Vκ2/VH3 consensus (uncapped), human IL23R specific scFv (scFv)
scFv: DIVMTQSPLSLPVTPGEPASISCQASENIYSFLAWYLQKPGQSPQLLIYSASKLAAGVPDRFSGSGSGTDFTLKISRVEAEDVGVYYCQQTNRYSNPDIYNVFGQGTKVEIKRGGGGSGGGGSGGGGSGGGGSEVQLVESGGGLVQPGGSLRLSCAASGIDFNSNYYMCWVRQAPGKGLEWVSCIYVGSHVNTYYANWAKGRFTISRDNSKNTLYLQMNSLRAEDTAVYYCATSGSSVLYFKFWGQGTLVTVSS
notes: scFv VL-linker-VH, made in E. coli; Vκ framework IV (uncapped, full consensus); also called Vκ2VH3 uncapped
B4: Vκ2/VH6 consensus (uncapped), human IL23R specific scFv (scFv)
scFv: DIVMTQSPLSLPVTPGEPASISCQASENIYSFLAWYLQKPGQSPQLLIYSASKLAAGVPDRFSGSGSGTDFTLKISRVEAEDVGVYYCQQTNRYSNPDIYNVFGQGTKVEIKRGGGGSGGGGSGGGGSGGGGSQVQLQQSGPGLVKPSQTLSLTCAISGIDFNSNYYMCWIRQSPGRGLEWLGCIYVGSHVNTYYANWAKGRITINPDTSKNQFSLQLNSVTPEDTAVYYCATSGSSVLYFKFWGQGTLVTVSS
notes: scFv VL-linker-VH, made in E. coli; Vκ framework IV (uncapped, full consensus); also called Vκ2VH6 uncapped
B5: Vκ1/VH2 consensus λ-capped, human IL23R specific scFv (scFv)
scFv: DIQMTQSPSSLSASVGDRVTITCQASENIYSFLAWYQQKPGKAPKLLIYSASKLAAGVPSRFSGSGSGTDFTLTISSLQPEDFATYYCQQTNRYSNPDIYNVFGGGTKLTVLGGGGGSGGGGSGGGGSGGGGSQVQLKESGPALVKPTQTLTLTCTFSGIDFNSNYYMCWIRQPPGKALEWLACIYVGSHVNTYYANWAKGRLTISKDTSKNQVVLTMTNMDPVDTATYYCATSGSSVLYFKFWGQGTLVTVSS
notes: scFv VL-linker-VH, made in E. coli; also called Vκ1VH2 capped
B6: Vκ3/VH3 consensus λ-capped, human IL23R specific scFv (scFv)
scFv: DIVLTQSPATLSLSPGERATLSCQASENIYSFLAWYQQKPGQAPRLLIYSASKLAAGVPARFSGSGSGTDFTLTISSLEPEDFAVYYCQQTNRYSNPDIYNVFGGGTKLTVLGGGGGSGGGGSGGGGSGGGGSEVQLVESGGGLVQPGGSLRLSCAASGIDFNSNYYMCWVRQAPGKGLEWVSCIYVGSHVNTYYANWAKGRFTISRDNSKNTLYLQMNSLRAEDTAVYYCATSGSSVLYFKFWGQGTLVTVSS
notes: scFv VL-linker-VH, made in E. coli; also called Vκ3VH3 capped
B7: Vκ2/VH4 consensus (uncapped), human IL23R specific scFv (scFv)
scFv: DIVMTQSPLSLPVTPGEPASISCQASENIYSFLAWYLQKPGQSPQLLIYSASKLAAGVPDRFSGSGSGTDFTLKISRVEAEDVGVYYCQQTNRYSNPDIYNVFGQGTKVEIKRGGGGSGGGGSGGGGSGGGGSQVQLQESGPGLVKPSETLSLTCTVSGIDFNSNYYMCWIRQPPGKGLEWIGCIYVGSHVNTYYANWAKGRVTISVDTSKNQFSLKLSSVTAADTAVYYCATSGSSVLYFKFWGQGTLVTVSS
notes: scFv VL-linker-VH, made in E. coli; Vκ framework IV (uncapped, full consensus); also called Vκ2VH4 uncapped
B8: Vκ3/VH1A consensus (uncapped), human IL23R specific scFv (scFv)
scFv: DIVLTQSPATLSLSPGERATLSCQASENIYSFLAWYQQKPGQAPRLLIYSASKLAAGVPARFSGSGSGTDFTLTISSLEPEDFAVYYCQQTNRYSNPDIYNVFGQGTKVEIKRGGGGSGGGGSGGGGSGGGGSQVQLVQSGAEVKKPGSSVKVSCKASGIDFNSNYYMCWVRQAPGQGLEWMGCIYVGSHVNTYYANWAKGRVTITADESTSTAYMELSSLRSEDTAVYYCATSGSSVLYFKFWGQGTLVTVSS
notes: scFv VL-linker-VH, made in E. coli; Vκ framework IV (uncapped, full consensus); also called Vκ3VH1A uncapped
B9: Vκ3/VH1B consensus (uncapped), human IL23R specific scFv (scFv)
scFv: B8 scFv with S149A, I205M, A207R, E209T, T211I
notes: scFv VL-linker-VH, made in E. coli; Vκ framework IV (uncapped, full consensus); also called Vκ3VH1B uncapped
B10: Vκ2/VH2 consensus λ-capped, human IL23R specific scFv (scFv)
scFv: DIVMTQSPLSLPVTPGEPASISCQASENIYSFLAWYLQKPGQSPQLLIYSASKLAAGVPDRFSGSGSGTDFTLKISRVEAEDVGVYYCQQTNRYSNPDIYNVFGGGTKLTVLGGGGGSGGGGSGGGGSGGGGSQVQLKESGPALVKPTQTLTLTCTFSGIDFNSNYYMCWIRQPPGKALEWLACIYVGSHVNTYYANWAKGRLTISKDTSKNQVVLTMTNMDPVDTATYYCATSGSSVLYFKFWGQGTLVTVSS
notes: scFv VL-linker-VH, made in E. coli; also called Vκ2VH2 capped
B11: Vκ3/VH4 consensus λ-capped, human IL23R specific scFv (scFv)
scFv: DIVLTQSPATLSLSPGERATLSCQASENIYSFLAWYQQKPGQAPRLLIYSASKLAAGVPARFSGSGSGTDFTLTISSLEPEDFAVYYCQQTNRYSNPDIYNVFGGGTKLTVLGGGGGSGGGGSGGGGSGGGGSQVQLQESGPGLVKPSETLSLTCTVSGIDFNSNYYMCWIRQPPGKGLEWIGCIYVGSHVNTYYANWAKGRVTISVDTSKNQFSLKLSSVTAADTAVYYCATSGSSVLYFKFWGQGTLVTVSS
notes: scFv VL-linker-VH, made in E. coli; also called Vκ3VH4 capped
B12: Vκ1/VH4 consensus λ-capped, human IL23R specific scFv (scFv)
scFv: DIQMTQSPSSLSASVGDRVTITCQASENIYSFLAWYQQKPGKAPKLLIYSASKLAAGVPSRFSGSGSGTDFTLTISSLQPEDFATYYCQQTNRYSNPDIYNVFGGGTKLTVLGGGGGSGGGGSGGGGSGGGGSQVQLQESGPGLVKPSETLSLTCTVSGIDFNSNYYMCWIRQPPGKGLEWIGCIYVGSHVNTYYANWAKGRVTISVDTSKNQFSLKLSSVTAADTAVYYCATSGSSVLYFKFWGQGTLVTVSS
notes: scFv VL-linker-VH, made in E. coli; also called Vκ1VH4 capped
B13: Vκ2/VH5 consensus (uncapped), human IL23R specific scFv (scFv)
scFv: DIVMTQSPLSLPVTPGEPASISCQASENIYSFLAWYLQKPGQSPQLLIYSASKLAAGVPDRFSGSGSGTDFTLKISRVEAEDVGVYYCQQTNRYSNPDIYNVFGQGTKVEIKRGGGGSGGGGSGGGGSGGGGSEVQLVQSGAEVKKPGESLKISCKGSGIDFNSNYYMCWVRQMPGKGLEWMGCIYVGSHVNTYYANWAKGQVTISADKSISTAYLQWSSLKASDTAMYYCATSGSSVLYFKFWGQGTLVTVSS
notes: scFv VL-linker-VH, made in E. coli; Vκ framework IV (uncapped, full consensus); also called Vκ2VH5 uncapped
B14: Vκ1/VH3 consensus λ-capped, human IL23R specific scFv (scFv)
scFv: DIQMTQSPSSLSASVGDRVTITCQASENIYSFLAWYQQKPGKAPKLLIYSASKLAAGVPSRFSGSGSGTDFTLTISSLQPEDFATYYCQQTNRYSNPDIYNVFGGGTKLTVLGGGGGSGGGGSGGGGSGGGGSEVQLVESGGGLVQPGGSLRLSCAASGIDFNSNYYMCWVRQAPGKGLEWVSCIYVGSHVNTYYANWAKGRFTISRDNSKNTLYLQMNSLRAEDTAVYYCATSGSSVLYFKFWGQGTLVTVSS
notes: scFv VL-linker-VH, made in E. coli; also called Vκ1VH3 capped
B15: Vκ3/VH5 consensus λ-capped, human IL23R specific scFv (scFv)
scFv: DIVLTQSPATLSLSPGERATLSCQASENIYSFLAWYQQKPGQAPRLLIYSASKLAAGVPARFSGSGSGTDFTLTISSLEPEDFAVYYCQQTNRYSNPDIYNVFGGGTKLTVLGGGGGSGGGGSGGGGSGGGGSEVQLVQSGAEVKKPGESLKISCKGSGIDFNSNYYMCWVRQMPGKGLEWMGCIYVGSHVNTYYANWAKGQVTISADKSISTAYLQWSSLKASDTAMYYCATSGSSVLYFKFWGQGTLVTVSS
notes: scFv VL-linker-VH, made in E. coli; also called Vκ3VH5 capped
B16: Vκ3/VH2 consensus (uncapped), human IL23R specific scFv (scFv)
scFv: DIVLTQSPATLSLSPGERATLSCQASENIYSFLAWYQQKPGQAPRLLIYSASKLAAGVPARFSGSGSGTDFTLTISSLEPEDFAVYYCQQTNRYSNPDIYNVFGQGTKVEIKRGGGGSGGGGSGGGGSGGGGSQVQLKESGPALVKPTQTLTLTCTFSGIDFNSNYYMCWIRQPPGKALEWLACIYVGSHVNTYYANWAKGRLTISKDTSKNQVVLTMTNMDPVDTATYYCATSGSSVLYFKFWGQGTLVTVSS
notes: scFv VL-linker-VH, made in E. coli; Vκ framework IV (uncapped, full consensus); also called Vκ3VH2 uncapped

biological target: T1, human interleukin-23 receptor (IL23R); experiment: SPR, scFv
Method in brief: (§1)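 Affinity values for human IL23R come from surface plasmon resonance, expressed as rate constants and dissociation constant or as the λ-capped to uncapped dissociation-constant ratio. The tested molecules were humanized rabbit scFv on consensus germline framework pairs, either uncapped or with Vκ framework IV replaced by a Vλ germline sequence (λ-cap), refolded from E. coli inclusion bodies.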

Row | Kd | koff | kon | Binder
1 | 0.166 nM | 0.000616 s⁻¹ | 3.71e+06 M⁻¹ s⁻¹ | B1
2 | 0.199 nM | 0.000478 s⁻¹ | 2.4e+06 M⁻¹ s⁻¹ | B2
3 | 0.0236 nM | 4.3e-05 s⁻¹ | 1.82e+06 M⁻¹ s⁻¹ | B3
4 | 3.24 nM | 0.000288 s⁻¹ | 88700 M⁻¹ s⁻¹ | B4
5 | 0.0731 nM | 0.000128 s⁻¹ | 1.76e+06 M⁻¹ s⁻¹ | B5
6 | 0.022 nM | 6.38e-05 s⁻¹ | 2.89e+06 M⁻¹ s⁻¹ | B6
7 | 0.125 nM | 0.000157 s⁻¹ | 1.26e+06 M⁻¹ s⁻¹ | B7
8 | 0.297 nM | 0.000479 s⁻¹ | 1.61e+06 M⁻¹ s⁻¹ | B8
9 | 0.455 nM | 0.000724 s⁻¹ | 1.59e+06 M⁻¹ s⁻¹ | B9
10 | 0.0741 nM | 0.000102 s⁻¹ | 1.38e+06 M⁻¹ s⁻¹ | B10
11 | 0.123 nM | 0.000288 s⁻¹ | 2.35e+06 M⁻¹ s⁻¹ | B11
12 | 0.0455 nM | 0.000191 s⁻¹ | 4.2e+06 M⁻¹ s⁻¹ | B12
13 | 0.303 nM | 0.000475 s⁻¹ | 1.57e+06 M⁻¹ s⁻¹ | B13
14 | 0.0137 nM | 5.43e-05 s⁻¹ | 3.95e+06 M⁻¹ s⁻¹ | B14
15 | 0.864 nM | 0.0013 s⁻¹ | 1.5e+06 M⁻¹ s⁻¹ | B15
16 | 0.462 nM | 0.000363 s⁻¹ | 786000 M⁻¹ s⁻¹ | B16

biological target: T1, human interleukin-23 receptor (IL23R); experiment: SPR; KD of the capped scFv over KD of its uncapped counterpart
Method in brief: as §1

Row | Ratio (capped/uncapped) of KD | Binder
17 | 8.3 | B1
18 | 1.2 | B2
19 | 0.3 | B5
20 | 0.6 | B6
21 | 0.9 | B11
22 | 0.5 | B12
23 | 0.4 | B14
24 | 1.6 | B15

biological target: T1, human interleukin-23 receptor (IL23R); experiment: SPR, scFv (summary table)
Method in brief: as §1

Row | Kd | Binder
25 | 0.166 nM | B1
26 | 0.199 nM | B2
27 | 0.0236 nM | B3
28 | 3.24 nM | B4
29 | 0.0731 nM | B5
30 | 0.022 nM | B6
31 | 0.125 nM | B7
32 | 0.297 nM | B8
33 | 0.455 nM | B9
34 | 0.0741 nM | B10
35 | 0.123 nM | B11
36 | 0.0455 nM | B12
37 | 0.303 nM | B13
38 | 0.0137 nM | B14
39 | 0.864 nM | B15
40 | 0.462 nM | B16
